Assays:
Assay in all cases: cell-based or functional assay
[1] = target: glycoprotein D of HSV-2 00040 (clinical strain), on infectious virus (HSV-2 (clinical strain 00040))
[2] = target: glycoprotein D of HSV-1 KOS, on infectious virus (HSV-1 (KOS strain), UniProt A1Z0Q5 26-394)
[3] = target: glycoprotein D of HSV-2 186, on infectious virus (HSV-2 (strain 186))
[4] = target: glycoprotein D of HSV-1 00410 (clinical strain), on infectious virus (HSV-1 (clinical strain 00410))

Sequence of glycoprotein D of HSV-1 KOS, on infectious virus (A1Z0Q5 26-394 limits assumed): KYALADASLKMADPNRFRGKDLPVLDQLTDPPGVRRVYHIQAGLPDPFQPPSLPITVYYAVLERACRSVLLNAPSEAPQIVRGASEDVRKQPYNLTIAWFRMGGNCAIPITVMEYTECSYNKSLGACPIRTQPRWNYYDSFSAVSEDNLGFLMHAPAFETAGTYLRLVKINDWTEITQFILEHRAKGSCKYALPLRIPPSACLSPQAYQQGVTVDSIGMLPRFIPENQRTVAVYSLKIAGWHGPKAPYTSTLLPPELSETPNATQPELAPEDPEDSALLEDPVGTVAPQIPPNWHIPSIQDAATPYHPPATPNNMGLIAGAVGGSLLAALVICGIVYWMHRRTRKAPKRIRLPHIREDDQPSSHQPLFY

B1: scFv E425 (scFv, not shown: small tags and cut ends)
scFv: QVQLQQSGAGVKKPGSSVRVSCSASGGTLRTYALSWVRQVPGQGFEWMGRIIPMFGKTDYAQKFQGRLSITADKSMDTGFMELTSLTSEDTAVYYCARDLTTLTSYNWLDIWGQGTLVTVSSGGGGSGGGGSGGGGSETTLTQSPGTLSLSPGERATLSCRASQSVSSNYLAWYQKKPGQAPRLLIYGASSRATGIPDRFSGSGSGTDFTLTINRLEPEDFAVYYCQQYGRSPTFGQGTKVEIKR
[1]
  IC50, plaque reduction assay in Vero cells (HSV-2 00040): 1.16 nM
[2]
  IC50, plaque reduction assay in Vero cells (HSV-1 KOS): 2.2 nM
[3]
  IC50, plaque reduction assay in Vero cells (HSV-2 186): 4.5 nM
[4]
  IC50, plaque reduction assay in Vero cells (HSV-1 00410): 1.8 nM
